Experimental data as given in patent publication US20170305997A1 (Janssen / Centocor, published 2017).

Columns and labels:
[1] = molecular target: Recombinant human c-Met Fc chimera (human) (UniProt P08581); assay: SPR, serine scan in the ECB15 context
human c-Met on cells [2] = molecular target: T1, human c-Met on cells (human, UniProt P08581 25-1390); assay: cell-based or functional assay
human c-Met on cells [3] = molecular target: T1, human c-Met on cells; assay: binding to NCI-H441 cells, anti-His fluorescence
Protocol: Purified FN3 domains (50 μL/well; 0 to 1000 nM) were added to the cells for 1 hour at 4° C. in duplicate plates. […] Cells were incubated with biotinylated-anti HIS antibody (diluted 1:160 in FACS stain buffer, 50 μL/well, R&D Systems, cat # BAM050) for 30 minutes at 4° C. […] Cells were washed three times with FACS stain buffer (150 μL/well) and left in FACS stain buffer (50 μL/well).

human c-Met on cells [4] = molecular target: T1, human c-Met on cells; assay: cell-based or functional assay; remark: listed apart in the source
human c-Met on cells [5] = molecular target: T1, human c-Met on cells; assay: cell-based or functional assay; remark: listed apart in the source

B1: A3 F38S (designed binder)
chain: LPAPKNLVVSEVTEDSARLSWDDPWAFYESFLIQYQESEKVGEAIVLTVPGSERSYDLTGLKPGTEYTVSIYGVHNVYKDTNMRGLPLSAIFTTAPAPAPAPAPLPAPKNLVVSRVTEDSARLSWTAPDAAFDSFWIRYFESLGSGEAIVLTVPGSERSYDLTGLKPGTEYVVNIMGVKGGKISPPLSAIFTT
[1]
  Fold Change of KD against the parent: 1790 fold

B2: P114AR5P74-A5 (designed binder)
chain: LPAPKNLVVSRVTEDSARLSWTAPDAAFDSFWIRYDEVVVGGEAIVLTVPGSERSYDLTGLKPGTEYYVNILGVKGGSISVPLSAIFTTHHHHHH
Human c-Met on cells [2]
  inhibition of c-Met phosphorylation in NCI-H292 cells (IC50): 610 nM
Human c-Met on cells [3]
  EC50: 18.7 nM
Human c-Met on cells [4]
  Inhibition of Proliferation of U87-MG cells (IC50): 464 nM
  pMet inhibition in H441 cells (IC50): 1.08 µM
Human c-Met on cells [5]
  IC50 (nM) (ERK phosphorylation): 2370 nM
